Measured values as given in patent US20250101091A1 (Eli Lilly, published 2025).

Tests used:
[1] = biological target: T1, Cleaved rat epiregulin (rat, UniProt Q9Z0L5 56-101); experiment: cell-based or functional assay
[2] = biological target: T1, Cleaved rat epiregulin; experiment: MSD-SET solution equilibrium titration, 37 C, pH 6.0
[3] = biological target: T1, Cleaved rat epiregulin; experiment: MSD-SET solution equilibrium titration, 37 C, pH 7.4
[4] = biological target: T2, EGF (human, UniProt P01133 971-1023); experiment: ELISA: biotinylated ligand (20 nM) captured on neutravidin plate, antibody titrated 1:3, anti-human kappa-AP detection, OD405 [panel A]
T2 construct: Bought reagent, biotinylated in the ELISA; also called epidermal growth factor

[5] = biological target: T3, HB-EGF (human, UniProt Q99075 63-148); experiment: as above
T3 construct: Bought reagent, biotinylated in the ELISA

[6] = biological target: T4, TGFα (human, UniProt P01135 40-89); experiment: as above
T4 construct: Bought reagent, biotinylated in the ELISA; also called TGFA; transforming growth factor alpha

[7] = biological target: T5, human Epigen (human, UniProt Q6UW88 53-104, limits assumed); experiment: as above
T5 construct: Bought reagent, biotinylated in the ELISA; also called EPGN

[8] = biological target: T6, Amphiregulin (human, UniProt P15514 101-198); experiment: as above
T6 construct: Bought reagent, biotinylated in the ELISA; also called AREG
T6 sequence (looked up): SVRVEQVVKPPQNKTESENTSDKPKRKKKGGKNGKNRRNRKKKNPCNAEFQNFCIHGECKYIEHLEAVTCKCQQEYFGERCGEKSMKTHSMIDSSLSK

[9] = biological target: T7, Betacellulin (human, UniProt P35070 32-111); experiment: as above
T7 construct: Bought reagent, biotinylated in the ELISA; also called BTC
T7 sequence (looked up): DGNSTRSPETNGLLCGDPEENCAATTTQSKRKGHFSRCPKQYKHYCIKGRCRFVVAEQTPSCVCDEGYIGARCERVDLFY

B1: Antibody 1 (antibody, human IgG4 S228P, kappa, F234A L235A, V domains shown)
VH: QVQLQESGPGLVKPSETLSLTCTVSGGSISSYYWSWIRQPAGKGLEWIGRIYPSGNTNYNPSLKSRVTISVDTSKNQFSLKLSSVTAADTAVYYCARGGLVMDVWGQGTLVTVSS
VL: EIVLTQSPGTLSLSPGERATLSCRASQSVEFSYLAWYQQKPGQAPRLLIYGASSRATGIPDRFSGSGSGTDFTLTISRLEPEDFAVYYCHQYGTNPFTFGQGTKVEIKR
notes: Fully human IgG4 (S228P, F234A/L235A by EU index, C-terminal Lys deleted), kappa light chain
Question: B1 was tested. Which “IC50, neutralization of epiregulin induced luciferase reporter activity in C166-AP1-Luciferase cells” value [1] did it give?
Answer: 2.5 nM

Question: What about the Kd [2] of the same binder?
Answer: 0.286 nM

Question: And the Kd [3]?
Answer: 0.0302 nM

Question: Does B1 bind [4]?
Answer: no binding (tested: 10 ug/mL)

Question: Does B1 bind [5]?
Answer: no binding (tested: 10 ug/mL)

Question: Does B1 bind [6]?
Answer: no binding (tested: 10 ug/mL)

Question: Does B1 bind [7]?
Answer: no binding (tested: 10 ug/mL)

Question: Does B1 bind [8]?
Answer: no binding (tested: 10 ug/mL)

Question: Does B1 bind [9]?
Answer: no binding (tested: 10 ug/mL)
